B1: GT 74B1: Arabidopsis thaliana glycosyltransferase, SEQ ID NO: 35 (nucleotide), 124 (amino acid) (protein, listed as Arabidopsis thaliana)
chain: MAETTPKVKGHVVILPYPVQGHLNPMVQFAKRLVSKNVKVTIATTTYTASSITTPSLSVEPISDGFDFIPIGIPGFSVDTYSESFKLNGSETLTLLIEKFKSTDSPIDCLIYDSFLPWGLEVARSMELSAASFFTNNLTVCSVLRKFSNGDFPLPADPNSAPFRIRGLPSLSYDELPSFVGRHWLTHPEHGRVLLNQFPNHENADWLFVNGFEGLEETQDCENGESDAMKATLIGPMIPSAYLDDRMEDDKDYGASLLKPISKECMEWLETKQAQSVAFVSFGSFGILFEKQLAEVAIALQESDLNFLWVIKEAHIAKLPEGFVESTKDRALLVSWCNQLEVLAHESIGCFLTHCGWNSTLEGLSLGVPMVGVPQWSDQMNDAKFVEEVWKVGYRAKEEAGEVIVKSEELVRCLKGVMEGESSVKIRESSKKWKDLAVKAMSEGGSSDRSINEFIESLGK
B2: GT 71 D1: Arabidopsis thaliana glycosyltransferase, SEQ ID NO: 12 (nucleotide), 111 (amino acid) (protein, listed as Arabidopsis thaliana)
chain: MRNVELIFIPTPTVGHLVPFLEFARRLIEQDDRIRITILLMKLQGQSHLDTYVKSIASSQPFVRFIDVPELEEKPTLGSTQSVEAYVYDVIERNIPLVRNIVMDILTSLALDGVKVKGLVVDFFCLPMIDVAKDISLPFYVFLTTNSGFLAMMQYLADRHSRDTSVFVRNSEEMLSIPGFVNPVPANVLPSALFVEDGYDAYVKLAILFTKANGILVNSSFDIEPYSVNHFLQEQNYPSVYAVGPIFDLKAQPHPEQDLTRRDELMKWLDDQPEASVVFLCFGSMARLRGSLVKEIAHGLELCQYRFLWSLRKEEVTKDDLPEGFLDRVDGRGMICGWSPQVEILAHKAVGGFVSHCGWNSIVESLWFGVPIVTWPMYAEQQLNAFLMVKELKLAVELKLDYRVHSDEIVNANEIETAIRYVMDTDNNVVRKRVMDISQMIQRATKNGGSSFAAIEKFIYDVIGIKP
B3: GT 71C2: Arabidopsis thaliana glycosyltransferase, SEQ ID NO: 8 (nucleotide), 109 (amino acid) (protein, listed as Arabidopsis thaliana)
chain: MAKQQEAELIFIPFPIPGHILATIELAKRLISHQPSRIHTITILHWSLPFLPQSDTIAFLKSLIETESRIRLITLPDVQNPPPMELFVKASESYILEYVKKMVPLVRNALSTLLSSRDESDSVHVAGLVLDFFCVPLIDVGNEFNLPSYIFLTCSASFLGMMKYLLERNRETKPELNRSSDEETISVPGFVNSVPVKVLPPGLFTTESYEAWVEMAERFPEAKGILVNSFESLERNAFDYFDRRPDNYPPVYPIGPILCSNDRPNLDLSERDRILKWLDDQPESSVVFLCFGSLKSLAASQIKEIAQALELVGIRFLWSIRTDPKEYASPNEILPDGFMNRVMGLGLVCGWAPQVEILAHKAIGGFVSHCGWNSILESLRFGVPIATWPMYAEQQLNAFTIVKELGLALEMRLDYVSEYGEIVKADEIAGAVRSLMDGEDVPRRKLKEIAEAGKEAVMDGGSSFVAVKRFIDGL
B4: GT 88A1: Arabidopsis thaliana glycosyltransferase, SEQ ID NO: 97 (nucleotide), 133 (amino acid) (protein, listed as Arabidopsis thaliana)
chain: MGEEAIVLYPAPPIGHLVSMVELGKTILSKNPSLSIHIILVPPPYQPESTATYISSVSSSFPSITFHHLPAVTPYSSSSTSRHHHESLLLEILCFSNPSVHRTLFSLSRNFNVRAMIIDFFCTAVLDITADFTFPVYFFYTSGAACLAFSFYLPTIDETTPGKNLKDIPTVHIPGVPPMKGSDMPKAVLERDDEVYDVFIMFGKQLSKSSGIIINTFDALENRAIKAITEELCFRNIYPIGPLIVNGRIEDRNDNKAVSCLNWLDSQPEKSVVFLCFGSLGLFSKEQVIEIAVGLEKSGQRFLWVVRNPPELEKTELDLKSLLPEGFLSRTEDKGMVVKSWAPQVPVLNHKAVGGFVTHCGWNSILEAVCAGVPMVAWPLYAEQRFNRVMIVDEIKIAISMNESETGFVSSTEVEKRVQEIIGECPVRERTMAMKNAAELALTETGSSHTALTTLLQSWSPK

Assay: Whole-cell biocatalysis screen of GT library against the aglycone trans-resveratrol (RP-HPLC of glucosides)
Format: cell-based, E. coli
Settings: 500 µM aglycone, 44 h, 25° C.
Description: FIG. 4: Screening of a GT-library against the aglycone trans-resveratrol. a) The readings at A405 nm for D-glucose detection are presented in a colored code format. b) Examples of RP HPLC trace of active and non active GTs in whole cell biocatalysis are illustrated. c) The regioselectivity of the active GTs towards trans-resveratrol, defined by the percentage of a regiospecific glucoside in the total amount of monoglucosides formed;
Reverse-phase HPLC (RP-HPLC): RP-HPLC (Agilent 1100 system with Photodiode Array Detector, Agilent, U.K.) analysis was carried out using a Columbus 5-μ C18 column (150×3.20 mm, Phenomenex, U.K.). Glucosides were separated from their respective aglycones using a linear gradient of acetonitrile/0.1% formic acid (v/v) in H2O: 10-45% (trans-resveratrol/glucosides), 10-50% (daidzein/glucosides) at 0.5 mL/min over 20 min and monitored at 280 nm and 250 nm. Separation of scopoletin/scopolin and esculetin/esculin was carried out using the conditions described previously.^[11]
The cDNA library of 96 Arabidopsis thaliana GTs was subcloned into the multiple cloning site of the glutathione-S-transferase (GST) gene fusion vector pGEX-2T (Amersham Biosciences, U.K.) as described previously^[10] and transformed into the strain E. coli BL21 (DE3) for use in the screening method.
Stage 1, biotransformation: single colonies of the GT library grown on LB-agar plates overnight were transferred to individual wells in a 96-well bacterial culture plate containing 400 μl 2×YT medium (16 g/L bacto tryptone, 10 g/L yeast extract, 5 g/L NaCl) and 50 μg/mL ampicillin. The plate was covered with an adhesive plate seal (Abgene, U.K.) and incubated at 37° C. (250 rpm). The bacterial growth was monitored at 595 nm by a plate reader. After 4 h, the cultures had reached exponential phase. The plate was centrifuged (4000 g, 10 min), the supernatants discarded and cell pellets were resuspended in isopropyl-D-thiogalactopyranoside (0.1 mM), 2-(N-morpholino)ethanesulfonic acid (50 mM, pH 7.0), ampicillin (50 μg/mL), L-arabinose (10 g/L) and 500 µM of aglycone to a total whole-cell reaction volume of 400 μl/well. The 96-well plate was closed with a gas permeable adhesive plate seal, wrapped in alu foil for light protection and incubated at 25° C. (250 rpm). After 44 h the cultures were centrifuged (4000 g, 15 min) and the supernatants analyzed.
Stage 2, cleavage: supernatants (100 μl) were transferred to a microtiter plate, 1 μl of β-glucosidase (1 U) was added and the plate incubated for 90 min at 37° C.
Stage 3, detection: 50 μl of the reaction mix were transferred to a 96-well filtration plate (Abgene, U.K.), mixed with an equal volume of PVPP aqueous suspension (25 g/L), shaken for 1 h at 25° C. before centrifugation (1000 g, 5 min). To each filtrate, 50 mM 2-morpholino-ethanesulfonic acid buffer (MES) (pH 7.0), ABTS™ (0.1 mM), peroxidase (2 U) and glucose oxidase (2 U) were added to a final volume of 125 μl. The formation of the green dye was monitored at 405 nm at 30 min using a plate reader (Bio-Tec Instruments Inc., U.S.A).
The utility of the screening method and regioselective biocatalysis by the GTs are illustrated in FIGS. 2 and 3. Thirteen GTs recognized daidzein and twenty-five GTs were identified that glycosylated trans-resveratrol. […] The mono- and di-glucosides of daidzein (4-6) and trans-resveratrol (8-10), eluting earlier than the two aglycones under the RP-HPLC conditions used (FIGS. 2b and 3b), were identified using external standards when available, or by electrospray liquid chromatography-mass spectrometry (LC-MS). ^1H-NMR analysis was used to confirm the structure of the monoglucosides (Table 1, SEQ ID NO: 1-107). […] Similarly, regioselective glycosylation of trans-resveratrol was observed. […] Only trace levels of a diglucoside were observed under the reaction conditions used.

Molecule	regioselective glycosylation of trans-resveratrol (position)
B1	specific for the 4′-OH position
B2	specific for the 3-OH position
B3	specific for the 3-OH position
B4	specific for the 3-OH position

Reference: patent publication US20090280543A1, “REGIOSELECTIVE GLYCOSYLATION” (THE UNIVERSITY OF YORK, priority 2005, published 2009)
